Substitutions are numbered along the chain they refer to.
B1: AB1 (antibody, V domains shown)
VH: QVQLKESGPGLVKPSETLSLTCTVSGFSLTSYHISWVRQPPGKGLEWMGVIWGDGSKTYNSALKSRLSISRDTSKSQVFLKMRSLKTEDTATYYCARGGDSGFAYWGQGTLVTVSS
VL: DIQMTQSPASLSASLEEIVTITCQASQDIGNWLSWYQQKPGKSPQLLIYGTTNLADGVPSRFSGSRSGTQYSLKISRLQVEDIGIYYCLQAYSVPLTFGSGTKLEIK
notes: Hybridoma monoclonal (mice or rats immunised); Used purified and PE-conjugated; also called antibody 1; clone 1
B2: AB2 (antibody, V domains shown)
VH: B1 VH
VL: B1 VL
notes: Hybridoma monoclonal; also called antibody 2; clone 2
B3: AB4 (antibody, V domains shown)
VH: B1 VH with S31G, I34V, S56R, K57T, R83S
VL: B1 VL with T51A, N53S, Y71F, S93I, I106S
notes: Hybridoma monoclonal; also called antibody 4; clone 4
B4: AB3 (antibody, V domains shown)
VH: B1 VH with S56K, K57T, R83N
VL: B1 VL
notes: Hybridoma monoclonal; also called antibody 3; clone 3
B5: AB14 (antibody, V domains shown)
VH: EVQLVESGGGLVQPKGSLKLSCAASGFTFNTYAMNWVRQAPGKGLEWVARIRSKSNNYATYYVDSVKDRFTISRDDSQSMLYLQINNLKTEDTAMYYCVRGRELGPYSAMDYWGQGTSVTVSS
VL: DIVMTQAAPSVPVTPGESVSISCRSSKSLLHSNGNTYLYWFLQRPGQSPQLLIYRMSNLASGVPDRFSGSGSGTAFTLRISRVEAEDVGLYYCMQHLEYPFTFGGGTKLEIK
notes: Hybridoma monoclonal; also called antibody 14; clone 14
B6: AB10 (antibody, V domains shown)
VH: EVQLVETGGGLVQPKGSLKLSCAVSGFTFKTNAMNWVRQAPGKGLEWVARIRSKSNKYATYYADSVKDRFTISRDDSQSMLYLQMNNLKTEDTAMYYCVRGSEMGYYYAMDYWGQGTSVTVSS
VL: B5 VL with L90V
notes: Hybridoma monoclonal; also called antibody 10; clone 10
B7: AB12 (antibody, V domains shown)
VH: B5 VH with T28A, V48I, I51L, N57F, V63A, I85M, M95V, Y107S, S108Y
VL: B5 VL with L90V, F101Y
notes: Hybridoma monoclonal; also called antibody 12; clone 12

Legend:
[1] = molecular target: T1, human chemokine (C-C motif) receptor 8 (CCR8) (human, UniProt P51685 1-355); assay: cell-based or functional assay
T1 sequence (P51685 whole entry): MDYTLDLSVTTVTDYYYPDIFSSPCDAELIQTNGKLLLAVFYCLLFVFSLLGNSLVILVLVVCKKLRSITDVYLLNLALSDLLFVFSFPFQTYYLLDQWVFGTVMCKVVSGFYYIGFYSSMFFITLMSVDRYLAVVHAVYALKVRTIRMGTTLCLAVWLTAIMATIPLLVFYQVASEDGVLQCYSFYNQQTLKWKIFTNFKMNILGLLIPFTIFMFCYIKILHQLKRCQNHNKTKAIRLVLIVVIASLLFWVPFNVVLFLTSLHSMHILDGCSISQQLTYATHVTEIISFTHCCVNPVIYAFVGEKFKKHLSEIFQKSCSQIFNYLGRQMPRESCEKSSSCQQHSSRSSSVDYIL

[2] = molecular target: T1, human chemokine (C-C motif) receptor 8 …; assay: flow cytometry blocking, PBMC CCR8+ CD4+ cells; competitor PE-AB1 (its MFI is read)
Description: (§1) For blocking studies, 100 μL of the cell suspension were incubated with 10 μg purified isotype control, AB1, AB2, AB3, AB4, AB5, AB8, AB9, AB10, AB11, AB12, AB13, AB14, AB15, and Commercial ABI antibodies, or isotype control, as blocking agents.
(§2) After incubation with the blocking agent, the cells were incubated with 0.25 μg of the indicated PE-conjugated antibody plus anti-human CD4 APC or anti-human CD3 for another 15 minutes in the dark and then washed 2 times with Cell Staining Buffer, and acquired in a FACSCanto II flow cytometer (BD Biosciences); the data was analyzed using FCS Express (De Novo Software); MFI correspond to the CCR8+ CD4+ lymphocytes or CCR8+ CD3+ lymphocytes.
(§3) Percentage original MFI was calculated by dividing the MFI of samples blocked with AB1, AB2, AB3, AB4, AB5, AB6, AB7, AB8, AB9, AB10, AB11, AB12, AB13, AB14, AB15, and Commercial ABI antibodies, by the MFI of samples blocked with the corresponding isotype control. This value was subtracted from 100 to get a blocking percentage. The formula is shown below: […]

[3] = molecular target: T1, human chemokine (C-C motif) receptor 8 …; assay: flow cytometry blocking, PBMC CCR8+ CD4+ cells; competitor PE-AB2 (its MFI is read)
Description: as §1, §2, §3

[4] = molecular target: T1, human chemokine (C-C motif) receptor 8 …; assay: flow cytometry blocking, PBMC CCR8+ CD4+ cells; competitor PE-AB3 (its MFI is read)
Description: as §1, §2, §3

[5] = molecular target: T1, human chemokine (C-C motif) receptor 8 …; assay: flow cytometry blocking, PBMC CCR8+ CD4+ cells; competitor PE-AB4 (its MFI is read)
Description: as §1, §2, §3

[6] = molecular target: T1, human chemokine (C-C motif) receptor 8 …; assay: flow cytometry blocking, PBMC CCR8+ CD4+ cells; competitor PE-AB5 (its MFI is read)
Description: as §1, §2, §3

[7] = molecular target: T1, human chemokine (C-C motif) receptor 8 …; assay: flow cytometry blocking, PBMC CCR8+ CD4+ cells; competitor PE-AB6 (its MFI is read)
Description: as §1, §2, §3

[8] = molecular target: T1, human chemokine (C-C motif) receptor 8 …; assay: flow cytometry blocking, PBMC CCR8+ CD4+ cells; competitor PE-AB10 (its MFI is read)
Description: as §1, §2, §3

[9] = molecular target: T1, human chemokine (C-C motif) receptor 8 …; assay: flow cytometry blocking, PBMC CCR8+ CD4+ cells; competitor PE-AB11 (its MFI is read)
Description: as §1, §2, §3

[10] = molecular target: T1, human chemokine (C-C motif) receptor 8 …; assay: flow cytometry blocking, PBMC CCR8+ CD4+ cells; competitor PE-AB12 (its MFI is read)
Description: as §1, §2, §3

[11] = molecular target: T1, human chemokine (C-C motif) receptor 8 …; assay: flow cytometry blocking, PBMC CCR8+ CD4+ cells; competitor PE-AB13 (its MFI is read)
Description: as §1, §2, §3

[12] = molecular target: T1, human chemokine (C-C motif) receptor 8 …; assay: flow cytometry blocking, PBMC CCR8+ CD4+ cells; competitor PE-AB14 (its MFI is read)
Description: as §1, §2, §3

[13] = molecular target: T1, human chemokine (C-C motif) receptor 8 …; assay: flow cytometry blocking, PBMC CCR8+ CD4+ cells; competitor PE-AB15 (its MFI is read)
Description: as §1, §2, §3

[14] = molecular target: T1, human chemokine (C-C motif) receptor 8 …; assay: flow cytometry blocking, PBMC CCR8+ CD4+ cells; competitor PE-ABII (its MFI is read)
Description: as §1, §2, §3

| Binder | % hCCR8-Ba/F3 - THP-1 complexes [1] [%] | % Blocking [2] [%] | MFI [2] | % Blocking [3] [%] | MFI [3] | % Blocking [4] [%] | MFI [4] | % Blocking [5] [%] | MFI [5] | % Blocking [6] [%] | MFI [6] | % Blocking [7] [%] | MFI [7] | % Blocking [8] [%] | MFI [8] | % Blocking [9] [%] | MFI [9] | % Blocking [10] [%] | MFI [10] | % Blocking [11] [%] | further results |
| --- | --- | --- | --- | --- | --- | --- | --- | --- | --- | --- | --- | --- | --- | --- | --- | --- | --- | --- | --- | --- | --- |
| B1 | 0.6 | 28.8 | 467 | 46.8 | 356 | 48.3 | 359 | 100 | 0 | 25.7 | 557 | 40.2 | 469 | 0.2 | 1010 | -4.76 | 944 | -6.83 | 1040 | 1.62 | MFI [11]: 921; % Blocking [12]: 6.44%; MFI [12]: 829; % Blocking [13]: 1.66%; MFI [13]: 780; % Blocking [14]: 2.87%; MFI [14]: 1080 |
| B2 | 0.48 | 13.5 | 567 | 26.7 | 491 | 42.4 | 399 | 16.2 | 572 | 36.7 | 475 | 45.9 | 424 | -8.07 | 1090 | -7.68 | 971 | -9.94 | 1070 | 8.25 | MFI [11]: 859; % Blocking [12]: 2.39%; MFI [12]: 865; % Blocking [13]: -7.83%; MFI [13]: 855; % Blocking [14]: 0.77%; MFI [14]: 1100 |
| B3 | 0.43 | 100 | 0 | 45.8 | 363 | 48.2 | 359 | -61.4 | 1100 | 45.1 | 411 | 47.3 | 413 | -12.2 | 1130 | -13.3 | 1020 | -4.04 | 1020 | -3.67 | MFI [11]: 971; % Blocking [12]: 0.97%; MFI [12]: 878; % Blocking [13]: -7.83%; MFI [13]: 855; % Blocking [14]: -7.57%; MFI [14]: 1190 |
| B4 | 0.74 | 36.5 | 416 | 37 | 422 | 100 | 0 | 34.6 | 446 | 38.8 | 459 | 45.5 | 427 | -1.1 | 1020 | -4.37 | 941 | -7.35 | 1050 | 7.12 | MFI [11]: 870; % Blocking [12]: -2.68%; MFI [12]: 910; % Blocking [13]: -10.2%; MFI [13]: 874; % Blocking [14]: 3.05%; MFI [14]: 1070 |
| B5 | 0.97 | -39.8 | 916 | -32.6 | 888 | -23.3 | 855 | -39.4 | 951 | -29.2 | 969 | -23.3 | 966 | 28.6 | 720 | 44.4 | 501 | 43.3 | 553 | 38.4 | MFI [11]: 577; % Blocking [12]: -237%; MFI [12]: 2980; % Blocking [13]: -218%; MFI [13]: 2520; % Blocking [14]: 9.26%; MFI [14]: 1000 |
| B6 | 0.47 | -61.8 | 1060 | -45.2 | 972 | -38.4 | 961 | -41.9 | 969 | -32.8 | 995 | -26.3 | 990 | -32.5 | 1340 | 39.5 | 545 | -21.6 | 1190 | 2.16 | MFI [11]: 916; % Blocking [12]: 27.5%; MFI [12]: 642; % Blocking [13]: -0.06%; MFI [13]: 793; % Blocking [14]: 15%; MFI [14]: 942 |
| B7 | 1.56 | -45.4 | 953 | -46.8 | 983 | -27.5 | 885 | -54.7 | 1060 | -36.2 | 1020 | -24.1 | 973 | 5.71 | 950 | 23.6 | 689 | -5.38 | 1030 | 14.2 | MFI [11]: 803; % Blocking [12]: 100%; MFI [12]: 0; % Blocking [13]: 7.39%; MFI [13]: 734; % Blocking [14]: 22.9%; MFI [14]: 854 |

Source: patent US20240360228A1 (BIOLEGEND, published 2024)
